Consider 1 substance from patent publication US20210163900.

The series deals with T1, MTA1c (MTA1/MTA9/p1/p2 complex) (Tetrahymena thermophila).
T1 sequence 1: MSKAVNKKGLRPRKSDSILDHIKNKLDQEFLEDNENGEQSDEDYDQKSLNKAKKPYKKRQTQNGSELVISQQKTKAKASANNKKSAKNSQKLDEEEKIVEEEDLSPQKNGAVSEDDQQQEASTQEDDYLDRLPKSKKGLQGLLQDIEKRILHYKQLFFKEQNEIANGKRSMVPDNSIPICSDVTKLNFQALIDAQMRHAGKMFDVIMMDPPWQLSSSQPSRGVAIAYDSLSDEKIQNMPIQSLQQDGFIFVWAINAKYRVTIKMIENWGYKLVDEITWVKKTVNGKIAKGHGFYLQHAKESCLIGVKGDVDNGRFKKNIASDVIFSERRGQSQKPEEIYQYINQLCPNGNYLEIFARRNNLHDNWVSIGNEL
T1 sequence 2: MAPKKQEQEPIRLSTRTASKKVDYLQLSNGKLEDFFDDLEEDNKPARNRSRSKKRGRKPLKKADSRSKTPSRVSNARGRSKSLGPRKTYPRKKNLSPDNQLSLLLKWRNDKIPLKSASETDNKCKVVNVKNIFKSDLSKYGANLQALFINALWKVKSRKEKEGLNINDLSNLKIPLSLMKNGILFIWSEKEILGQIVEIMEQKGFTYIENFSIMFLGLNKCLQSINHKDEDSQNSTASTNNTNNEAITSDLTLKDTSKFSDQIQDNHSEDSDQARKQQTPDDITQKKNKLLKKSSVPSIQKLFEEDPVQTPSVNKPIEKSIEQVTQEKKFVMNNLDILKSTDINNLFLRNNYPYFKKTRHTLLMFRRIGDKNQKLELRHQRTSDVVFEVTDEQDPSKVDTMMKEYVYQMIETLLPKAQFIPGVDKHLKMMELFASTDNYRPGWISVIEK
T1 sequence 3: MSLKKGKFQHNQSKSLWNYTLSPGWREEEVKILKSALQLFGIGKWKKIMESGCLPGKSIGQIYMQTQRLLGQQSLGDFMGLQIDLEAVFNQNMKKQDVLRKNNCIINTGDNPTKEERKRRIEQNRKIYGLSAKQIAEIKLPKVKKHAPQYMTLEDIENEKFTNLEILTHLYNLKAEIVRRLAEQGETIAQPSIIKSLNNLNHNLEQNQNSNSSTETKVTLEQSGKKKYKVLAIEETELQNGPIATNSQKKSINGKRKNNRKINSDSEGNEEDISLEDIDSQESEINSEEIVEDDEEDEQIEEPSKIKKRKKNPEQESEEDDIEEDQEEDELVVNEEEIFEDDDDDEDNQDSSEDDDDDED
T1 sequence 4: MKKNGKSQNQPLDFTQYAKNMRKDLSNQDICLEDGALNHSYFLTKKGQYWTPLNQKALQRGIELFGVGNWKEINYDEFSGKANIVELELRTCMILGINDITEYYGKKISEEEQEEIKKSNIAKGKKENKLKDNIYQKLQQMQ
Conditions: [3H]SAM assay, reference substrate.

With 27 bp dsDNA with two ApT motifs, the activity (relative activity) was 1.
